The target in data set [1] is T1, P. vivax DXScc (DXS SH-2, DXS catalytic core) (Plasmodium vivax, UniProt A5K817).
T1 construct: gene PVX_082790; catalytic core, N-terminal first 210 residues (signal and transit peptide) deleted; codon-optimized gene in E. coli; theoretical monomer 103,921 Da; homodimer
T1 sequence (A5K817 211-1111): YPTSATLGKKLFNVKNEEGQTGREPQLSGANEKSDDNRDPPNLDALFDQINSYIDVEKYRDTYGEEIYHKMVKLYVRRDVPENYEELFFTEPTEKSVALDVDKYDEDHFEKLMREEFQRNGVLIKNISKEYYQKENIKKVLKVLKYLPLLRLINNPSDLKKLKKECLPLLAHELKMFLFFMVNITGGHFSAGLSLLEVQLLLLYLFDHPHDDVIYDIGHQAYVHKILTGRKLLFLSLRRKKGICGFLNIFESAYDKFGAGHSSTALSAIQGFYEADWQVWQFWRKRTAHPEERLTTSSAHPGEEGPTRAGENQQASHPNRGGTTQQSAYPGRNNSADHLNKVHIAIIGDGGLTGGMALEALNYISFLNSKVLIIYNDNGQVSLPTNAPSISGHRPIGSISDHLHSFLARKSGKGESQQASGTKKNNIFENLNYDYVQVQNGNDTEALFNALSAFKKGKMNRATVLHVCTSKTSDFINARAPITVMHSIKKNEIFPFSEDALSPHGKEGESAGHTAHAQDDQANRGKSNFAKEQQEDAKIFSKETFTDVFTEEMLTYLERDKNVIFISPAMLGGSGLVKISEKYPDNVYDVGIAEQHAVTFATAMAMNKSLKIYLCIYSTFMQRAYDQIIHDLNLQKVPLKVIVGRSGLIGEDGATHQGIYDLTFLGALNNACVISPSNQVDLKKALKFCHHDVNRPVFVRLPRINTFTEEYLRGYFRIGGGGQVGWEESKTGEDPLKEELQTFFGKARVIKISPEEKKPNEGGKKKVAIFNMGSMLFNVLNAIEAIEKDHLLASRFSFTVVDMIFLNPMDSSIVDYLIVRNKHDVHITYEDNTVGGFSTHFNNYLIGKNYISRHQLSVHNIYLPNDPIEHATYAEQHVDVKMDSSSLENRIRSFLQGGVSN
The experiment in a line: DXS–DXR coupled assay. The format is biochemical.

In data set [2] the target is Plasmodium vivax 1-deoxy-D-xylulose-5-phosphate synthase catalytic core (DXScc) (Plasmodium vivax). As to the kind of experiment: SEC; gel filtration chromatography under non-denaturing conditions of DXScc after Ni-NTA affinity chromatography; buffer and column not shown (Supplementary material). A general note: SEC sorts molecules by how far they enter the pores of the column.

Substrate in data set [3]: CC(=O)C(=O)O
As to the kind of experiment: DXS–DXR coupled assay. Type of data set: biochemical, Plasmodium vivax. The following applies: apparent; 0.1 mM GAP. From the text:
(§1) DXS–DXR coupled assay on P. vivax DXScc (DXS SH-2, DXS catalytic core)

Substrate in data set [4]: O=C[C@H](O)COP(=O)(O)O
The experiment in a line: DXS–DXR coupled assay. The format is biochemical, Plasmodium vivax. To be noted: apparent; 4.0 mM pyruvate.
Text: as §1

Data on three molecules can be found in paper PMC3668541, “Production of recombinant 1-deoxy-D-xylulose-5-phosphate synthase from Plasmodium vivax in Escherichia coli^” (FEBS Open Bio, 2013).

`O=C(O)C(=O)CF` [β-fluoropyruvate] had a Ki in data set [1] of 200 ± 100 µM.
Consider “Plasmodium vivax 1-deoxy-D-xylulose-5-phosphate synthase catalytic core (DXScc) (enzyme)”, for which, in data set [2], the stoichiometry N was 2.

B1: P. vivax DXScc (DXS SH-2, DXS catalytic core) (Plasmodium vivax Sal-1) (protein)
chain: T1 sequence (A5K817 211-1111)
notes: catalytic core, N-terminal first 210 residues (signal and transit peptide) deleted; codon-optimized gene in E. coli; theoretical monomer 103,921 Da; homodimer
As for B1, in “DXS–DXR coupled assay [3]”, the Michaelis-Menten constant (Km) is 870 ± 110 µM, the turnover number (kcat) was 9.5 ± 0.5 s⁻¹ and the kcat/Km turned out to be 11000 M⁻¹ s⁻¹. Also, in the data set “DXS–DXR coupled assay [4]”, the Km was 19 ± 4 µM, the catalytic constant (kcat) was 11 ± 0.9 s⁻¹ and the kcat/Km was found to be 570000 M⁻¹ s⁻¹.

As usually defined, the Ki is a measure of affinity in units of concentration, obtained from inhibition or displacement. Broadly, the stoichiometry N is the number of molecules, sites or subunits per partner or assembly. The term Km denotes the substrate concentration at which the rate is half of its maximum. As usually defined, the kcat is the maximal rate divided by the concentration of active sites. The term kcat/Km denotes the turnover number divided by the Michaelis constant.
